PMC12102759

B1: PAIP1 peptide 126-141 (Polyadenylate-binding protein-interacting protein 1), 16-mer library wild type / PABPC1 PABC (PABPC1 PABC domain, residues 544-623) (parent)
chain 1: SKLSVNAPEFYPSGYS
chain 2: PLTASMLASAPPQEQKQMLGERLFPLIQAMHPTLAGKITGMLLEIDNSELLHMLESPESLRSKVDEAVAVLQAHQAKEAA
B2: MXI1 peptide 4-19 (Max-interacting protein 1), 16-mer library wild type / SIN3A PAH2 (SIN3A PAH domain, residues 295-383) (parent)
chain 1: VKMINVQRLLEAAEFL
chain 2: SLQNNQPVEFNHAINYVNKIKNRFQGQPDIYKAFLEILHTYQKEQRNAKEAGGNYTPALTEQEVYAQVARLFKNQEDLLSEFGQFLPDA
B3: ATXN2 peptide 913-928 (Ataxin-2), 16-mer library wild type / PABPC1 PABC (PABPC1 PABC domain, residues 544-623) (parent)
chain 1: TLNPNAKEFNPRSFSQ
chain 2: B1 chain 2

Variants of: B1
Test: proteomic peptide phage display deep mutational scan (ProP-PD DMS): M13 P8 16-mer library selected against immobilised GST-tagged bait for four days (rounds), NGS of the eluted pools per day and pseudo-replica
Conditions: with PABPC1 PABC (PABPC1 PABC domain, residues 544-623); bait immobilised on MaxiSorp plates (10 µg), library pre-cleared on GST, 2 h binding at 4 °C, five washes; one round per day, days 1-4; value from days 2 and 3; keep out of graded; scale: average fractional NGS count over selection days 2 and 3
With chain 1 SKLSVNAVEFYPSGYS [chain 1 P8V] the screen value was 0.00064.
chain 1 SKLSVNAIEFYPSGYS [chain 1 P8I] showed a screen value of 0.000615.
For chain 1 SKLSVNAPEFYFSGYS [chain 1 P12F], the screen value was 0.00121.
For chain 1 SKLSVNAPEFYHSGYS [chain 1 P12H], the screen value was 0.00057.
Work on chain 1 SKLSVNAPEFYMSGYS [chain 1 P12M] yielded a screen value of 0.000643.
Variant chain 1 SKLSVNAPEFYRSGYS [chain 1 P12R] has a screen value of 4.76e-05.
chain 1 SKLSVNAPEFYESGYS [chain 1 P12E] showed a screen value of 0.000484.
Variant chain 1 SKLSVNAPEFYISGYS [chain 1 P12I] has a screen value of 0.000623.
For chain 1 SKLSVNAPEFYYSGYS [chain 1 P12Y], the screen value was 0.00157.
Variant chain 1 SKLSVNAPEFYSSGYS [chain 1 P12S] has a screen value of 0.00133.
chain 1 SKLSVNAPEFYNSGYS [chain 1 P12N] gave a screen value of 8.81e-05.
For chain 1 SKLSVNAPEFYQSGYS [chain 1 P12Q], the screen value was 0.000152.
With chain 1 SKLSVNAPEFYTSGYS [chain 1 P12T] the screen value was 0.000222.
chain 1 SKLSVNAPEFYASGYS [chain 1 P12A] was tested, and the screen value was 0.00198.
With chain 1 SKLSVNAPEFYLSGYS [chain 1 P12L] the screen value was 0.00211.
For chain 1 SKLSVNAPEFYVSGYS [chain 1 P12V], the screen value was 5.13e-05.
Work on chain 1 SNLSVNAPEFYPSGYS [chain 1 K2N] yielded a screen value of 0.000212.
chain 1 SVLSVNAPEFYPSGYS [chain 1 K2V] gave a screen value of 0.000896.
chain 1 SDLSVNAPEFYPSGYS [chain 1 K2D] was tested, and the screen value was 0.000197.
Variant chain 1 SALSVNAPEFYPSGYS [chain 1 K2A] has a screen value of 0.000319.
chain 1 SWLSVNAPEFYPSGYS [chain 1 K2W] gave a screen value of 0.000491.
Variant chain 1 SILSVNAPEFYPSGYS [chain 1 K2I] has a screen value of 0.
With chain 1 SPLSVNAPEFYPSGYS [chain 1 K2P] the screen value was 0.00022.
For chain 1 SFLSVNAPEFYPSGYS [chain 1 K2F], the screen value was 0.000245.
Work on chain 1 SYLSVNAPEFYPSGYS [chain 1 K2Y] yielded a screen value of 0.000158.
chain 1 SGLSVNAPEFYPSGYS [chain 1 K2G] was tested, and the screen value was 0.000321.
Work on chain 1 SHLSVNAPEFYPSGYS [chain 1 K2H] yielded a screen value of 4.17e-05.
In the case of chain 1 SKLSVNLPEFYPSGYS [chain 1 A7L], the screen value is reported as 4.17e-05.
For chain 1 SKLSVNGPEFYPSGYS [chain 1 A7G], the screen value was 0.000863.
chain 1 SKLSVNNPEFYPSGYS [chain 1 A7N] showed a screen value of 0.000551.
chain 1 SKLSVNQPEFYPSGYS [chain 1 A7Q] was tested, and the screen value was 0.00119.
chain 1 SKLSVNMPEFYPSGYS [chain 1 A7M] was tested, and the screen value was 0.000228.
Work on chain 1 SKLSVNVPEFYPSGYS [chain 1 A7V] yielded a screen value of 0.000178.
chain 1 SKLSVNSPEFYPSGYS [chain 1 A7S] gave a screen value of 0.000407.
In the case of chain 1 SKLSVNTPEFYPSGYS [chain 1 A7T], the screen value is reported as 0.00119.
chain 1 SKLSVNPPEFYPSGYS [chain 1 A7P] showed a screen value of 0.000137.
chain 1 SKLSVNHPEFYPSGYS [chain 1 A7H] gave a screen value of 0.000147.

Variants of: B2
Test: as above
Conditions: with SIN3A PAH2 (SIN3A PAH domain, residues 295-383); bait immobilised on MaxiSorp plates (10 µg), library pre-cleared on GST, 2 h binding at 4 °C, five washes; one round per day, days 1-4; value from days 2 and 3; keep out of graded; scale: average fractional NGS count over selection days 2 and 3
Variant chain 1 VKMINSQRLLEAAEFL [chain 1 V6S] has a screen value of 0.
Variant chain 1 VKMINTQRLLEAAEFL [chain 1 V6T] has a screen value of 0.
Work on chain 1 VKMINYQRLLEAAEFL [chain 1 V6Y] yielded a screen value of 0.000458.

Variants of: B3
Test: as above
Conditions: with PABPC1 PABC (PABPC1 PABC domain, residues 544-623); bait immobilised on MaxiSorp plates (10 µg), library pre-cleared on GST, 2 h binding at 4 °C, five washes; one round per day, days 1-4; value from days 2 and 3; scale: average fractional NGS count over selection days 2 and 3
In the case of chain 1 TLKPNAKEFNPRSFSQ [chain 1 N3K], the screen value is reported as 0.
chain 1 TLAPNAKEFNPRSFSQ [chain 1 N3A] gave a screen value of 0.
Work on chain 1 TLIPNAKEFNPRSFSQ [chain 1 N3I] yielded a screen value of 0.
Variant chain 1 TLTPNAKEFNPRSFSQ [chain 1 N3T] has a screen value of 8.32e-05.
chain 1 TLPPNAKEFNPRSFSQ [chain 1 N3P] showed a screen value of 0.
In the case of chain 1 TLHPNAKEFNPRSFSQ [chain 1 N3H], the screen value is reported as 0.
Work on chain 1 TLNPNAKEGNPRSFSQ [chain 1 F9G] yielded a screen value of 0.
chain 1 TLNPNAKEANPRSFSQ [chain 1 F9A] showed a screen value of 0.
For chain 1 TLNPNAKEYNPRSFSQ [chain 1 F9Y], the screen value was 0.000112.
With chain 1 TLNPNAKEQNPRSFSQ [chain 1 F9Q] the screen value was 0.
Variant chain 1 TLNPNAKEFGPRSFSQ [chain 1 N10G] has a screen value of 0.000262.
chain 1 TLNPNAKEFEPRSFSQ [chain 1 N10E] showed a screen value of 2.66e-05.
chain 1 TLNPNAKEFVPRSFSQ [chain 1 N10V] showed a screen value of 1.03e-05.
Work on chain 1 TLNPNAKEFKPRSFSQ [chain 1 N10K] yielded a screen value of 0.000142.
For chain 1 TLNSNAKEFNPRSFSQ [chain 1 P4S], the screen value was 0.000147.
Variant chain 1 TLNENAKEFNPRSFSQ [chain 1 P4E] has a screen value of 1.57e-05.
chain 1 TLNYNAKEFNPRSFSQ [chain 1 P4Y] gave a screen value of 0.
In the case of chain 1 TLNWNAKEFNPRSFSQ [chain 1 P4W], the screen value is reported as 0.
In the case of chain 1 TLNFNAKEFNPRSFSQ [chain 1 P4F], the screen value is reported as 0.000109.
Variant chain 1 TLNQNAKEFNPRSFSQ [chain 1 P4Q] has a screen value of 0.000331.
chain 1 TLNANAKEFNPRSFSQ [chain 1 P4A] gave a screen value of 0.000191.
chain 1 TLNPYAKEFNPRSFSQ [chain 1 N5Y] showed a screen value of 0.000372.
With chain 1 TLNPPAKEFNPRSFSQ [chain 1 N5P] the screen value was 1.03e-05.
chain 1 TLNPSAKEFNPRSFSQ [chain 1 N5S] showed a screen value of 0.000305.
In the case of chain 1 TLNPWAKEFNPRSFSQ [chain 1 N5W], the screen value is reported as 0.000157.
Work on chain 1 ELNPNAKEFNPRSFSQ [chain 1 T1E] yielded a screen value of 0.000115.
Variant chain 1 WLNPNAKEFNPRSFSQ [chain 1 T1W] has a screen value of 4.71e-05.
Variant chain 1 SLNPNAKEFNPRSFSQ [chain 1 T1S] has a screen value of 0.000147.
chain 1 QLNPNAKEFNPRSFSQ [chain 1 T1Q] showed a screen value of 0.000237.
chain 1 TLNPNAKEFNIRSFSQ [chain 1 P11I] gave a screen value of 9.64e-06.
chain 1 TLNPNIKEFNPRSFSQ [chain 1 A6I] was tested, and the screen value was 0.000105.
With chain 1 TLNPNPKEFNPRSFSQ [chain 1 A6P] the screen value was 0.
chain 1 TDNPNAKEFNPRSFSQ [chain 1 L2D] gave a screen value of 0.
Work on chain 1 TLNPNAKLFNPRSFSQ [chain 1 E8L] yielded a screen value of 0.
In the case of chain 1 TLNPNAKDFNPRSFSQ [chain 1 E8D], the screen value is reported as 0.
With chain 1 TLNPNAKIFNPRSFSQ [chain 1 E8I] the screen value was 0.000142.
chain 1 TLNPNAEEFNPRSFSQ [chain 1 K7E] showed a screen value of 0.000169.
In the case of chain 1 TLNPNAMEFNPRSFSQ [chain 1 K7M], the screen value is reported as 3.88e-05.
In the case of chain 1 TLNPNAREFNPRSFSQ [chain 1 K7R], the screen value is reported as 0.000217.
Work on chain 1 TLNPNAKEFNPRSFLQ [chain 1 S15L] yielded a screen value of 6.16e-05.
chain 1 TLNPNAKEFNPRSFNQ [chain 1 S15N] gave a screen value of 0.000264.
chain 1 TLNPNAKEFNPRSFYQ [chain 1 S15Y] was tested, and the screen value was 0.000175.
For chain 1 TLNPNAKEFNPRSFKQ [chain 1 S15K], the screen value was 0.00027.
Work on chain 1 TLNPNAKEFNPRSFTQ [chain 1 S15T] yielded a screen value of 2.11e-05.
Variant chain 1 TLNPNAKEFNPRSDSQ [chain 1 F14D] has a screen value of 0.000335.
In the case of chain 1 TLNPNAKEFNPRSSSQ [chain 1 F14S], the screen value is reported as 8.48e-05.
In the case of chain 1 TLNPNAKEFNPRSTSQ [chain 1 F14T], the screen value is reported as 0.000127.
In the case of chain 1 TLNPNAKEFNPRMFSQ [chain 1 S13M], the screen value is reported as 0.000163.
For chain 1 TLNPNAKEFNPREFSQ [chain 1 S13E], the screen value was 0.000117.
Work on chain 1 TLNPNAKEFNPRVFSQ [chain 1 S13V] yielded a screen value of 0.000423.
With chain 1 TLNPNAKEFNPRIFSQ [chain 1 S13I] the screen value was 0.
In the case of chain 1 TLNPNAKEFNPRKFSQ [chain 1 S13K], the screen value is reported as 0.000149.
chain 1 TLNPNAKEFNPRFFSQ [chain 1 S13F] showed a screen value of 7.96e-05.
Variant chain 1 TLNPNAKEFNPRHFSQ [chain 1 S13H] has a screen value of 0.00026.
